US20220226473A1, “Nucleic acid nanocarrier drug and preparation method thereof, pharmaceutical composition and application thereof” (BAI YAO ZHI DA (BEIJING) NANOBIO TECHNOLOGY CO., LTD., priority 2018, published 2022)
“And” between values parts separate entries of the source, which are not always exact repeats. Equal entries are not always repeated. Oligonucleotides are written 5' to 3', each unit as a sugar letter and its base; * is a phosphorothioate linkage, no mark a phosphodiester; rarer units and linkages stand in square brackets, end groups in braces. Plain capitals give the bases only. {Biotin} = biotin attached at the strand's 3'-end (Bio); d = 2'-deoxy (DNA)

What was measured:
Type in all cases: physicochemical
[1] = Electric potential (zeta potential) measurement of self-assembly products; conditions: result over 3 detections
Procedure: Measurement method: preparing a potential sample (the self-assembly product is dissolved in ultrapure water) and putting into a sample pool, opening a sample pool cover of an instrument, and placing the instrument;
opening software, clicking a menu MeasUre€ManUal, so a manual measurement parameter setting dialog box appears;
setting a software detection parameter;
and then clicking Ok to complete the settings, after a measurement dialog box appears, clicking start to start.
and then clicking Ok to complete the settings, after a measurement dialog box appears, clicking Start to start.
Measurement method: preparing a potential sample (the self-assembly product is dissolved in ultrapure water) and putting into a sample pool, opening a sample pool cover of an instrument, and placing the instrument:
Measurement result potential detection results of the 7 groups of the extension fragment deformation+core short-sequence RNA nanoparticles at 25 DEG C. are as follows:
setting a software detection parameter; and then
clicking Ok to complete the settings, after a measurement dialog box appears, clicking Start to start.
Measurement result potential detection results of the 7 groups of the extension fragment deformation+core short-sequence DNA nanoparticles at 25 DEG C. are as follows: […]

[2] = Drug loading rate of nucleic acid nanoparticles (chemical loading, absorbance standard curve); design: unit not given here; conditions: chemical loading method of Embodiment 5
Description: According to the chemical loading method (unless otherwise specified, the method is the same as that of Embodiment 5) of Embodiment 5, the RNA nanoparticles formed by the self-assembly of the previous R-15, R-16, R-17, R-18, R-19, R-20 and R-21 in Embodiment 9, and the DNA nanoparticles formed by the self-assembly of the D-8, D-9, D-10, D-11, D-12, D-13 and D-14 in Embodiment 10 are respectively used as doxorubicin loading carriers, doxorubicin loading rates measured are respectively as follows:
According to the chemical loading method (unless otherwise specified, the method is the same as that of Embodiment 5) of Embodiment 5, the DNA nanoparticles formed by the self-assembly of the previous D-10 and D-14 in Embodiment 10 are used as a daunorubicin loading carrier.
According to a chemical loading method of Embodiment 5 (unless otherwise specified, the method is the same as that of Embodiment 5, the same molar number of the epirubicin is used as a loading amount), nucleic acid nanoparticles (a molecular weight is 29550, it is similar to the RNA nanoparticles in Embodiment 1, and a difference is that a fluorescent label on a c-strand is Cy5) are used as a carrier, and respectively loaded with: epirubicin, methotrexate, pirarubicin, daunorubicin, […], 10-hydroxycamptothecin, aspirin and gemcitabine.
Herein, when a standard curve is drawn, the absorbance of the above drugs on the microplate reader is measured respectively. The absorbance of the epirubicin, methotrexate, pirarubicin, daunorubicin, […], 10-hydroxycamptothecin, aspirin and gemcitabine is respectively detected at the following wavelengths: 492 nm, 303 nm, 492 nm, 492 nm, 265 nm, 384 nm, 225 nm and 268 nm. The standard curves obtained correspondingly are respectively shown in FIG. 48a, FIG. 49, FIG. 50sa, FIG. 51, FIG. 52, FIG. 53, FIG. 54a and FIG. 55. […]

[3] = Particle size measurement (DLS hydrodynamic size); conditions: for Mean particle size (nm): DLS hydrodynamic size
Description: 1. Preparing a potential sample (conventional-sequence DNA self-assembly product D-7) and putting into a sample pool, opening a sample pool cover of an instrument, and placing the instrument;
2. opening software, and clicking a menu, so a manual measurement parameter setting dialog box appears;
3. setting a software detection parameter; and then
4. clicking Ok to complete the settings, when a measurement dialog box appears, clicking Start to start, a DLS measurement value result of a hydrodynamic size of the self-assembly product D-7 is shown below in Table 40: […]

[4] = TM value detection by solubility curve method (SYBR Green I); conditions: RNA nanoparticles; temperature corresponding to ½ RFUmax in 20 to 90 DEG C.
Procedure: A solubility curve method is used to detect TM values of the 7 groups of the extension fragment deformation+core short-sequence RNA nanoparticles, and the samples are consistent with the potential samples.
(1) After the sample is diluted with ultrapure water, 5 μg of the diluted sample is mixed with 2 μL of SYBR Green I dye (diluted by 1:200), a final volume is 20 μL, and the dilution concentration is as follows:
(2) It is incubated for 30 min in the dark at a room temperature; and
(3) On-machine detection is performed, a program is set to start at 20 DEG C., the temperature rises per second from 0.1 DEG C. to 95 DEG C., and reading is performed every 5 s.
Due to the particularity of the RNA samples, a temperature corresponding to ½ RFUmax in a range of 20 to 90 DEG C. is used as a sample Tm value in this test.
A solubility curve method is used to detect TM values of the 7 groups of the extension fragment deformation+core short-sequence DNA nanoparticles, and the samples are consistent with the potential samples.
(1) After the sample is diluted with ultrapure water, 5 μg of the diluted sample is mixed with 2 μL of SYBR Green I dye (diluted by 1:200). a final volume is 20 μL, and the dilution concentration is as follows: […]

B1: D-6: conventional-sequence DNA nanoparticle without target head, strands SEQ ID NO: 114-116 (nucleic acid)
chain 1: dC*dG*dC*dGdCdGdCdCdCdAdGdCdAdGdCdGdTdTdCdGdGdGdGdCdGdC*dC*dG*dC
chain 2: dG*dC*dG*dGdCdGdCdCdCdCdGdTdTdCdGdGdCdCdGdGdCdAdGdGdC*dG*dG*dC
chain 3: dG*dC*dC*dGdCdCdAdGdCdCdGdGdCdCdCdAdTdAdGdCdGdCdTdGdGdGdCdGdC*dG*dC*dG
modifications: three-strand DNA nanoparticle
Potential ZP, Experiment result ([1]; sample in ultrapure water): −31.90 mV (±0.2 mV)

B2: R-12: conventional-sequence RNA nanoparticle, strands SEQ ID NO: 88-90, C/U 2′F modified (nucleic acid)
chain 1: CGCGCGCCCAGCAGCGUUCGCCCCGCCGC
chain 2: GCGGCGGGGCGUUCGGCGGCAGGCGGC
chain 3: GCCGCCAGCCGCCCAUAGCGCUGGGCGCGCG
modifications: 2'-fluoro at CU, RNA at AG, backbone not given here; three-strand RNA nanoparticle used as drug carrier
Potential ZP, Experiment result ([1]; sample in ultrapure water): −10.86 mV (±3.27 mV)

B3: R-8: conventional-sequence RNA nanoparticle with extension fragments, strands SEQ ID NO: 76-78, C/U 2′F modified (nucleic acid)
chain 1: CGCGCGCCCAGGAGCGUUGGCGGGCGGCG
chain 2: CGCCGCCCGCCUUCGCCGCCAGCCGCC
chain 3: GGCGGCAGGCGGCCAUAGCCCUGGGCGCGCG
modifications: 2'-fluoro at CU, RNA at AG, backbone not given here; three-strand RNA nanoparticle used as drug carrier
Potential ZP, Experiment result ([1]; sample in ultrapure water): −17.43 mV (±1.33 mV)

B4: R-11: conventional-sequence RNA nanoparticle, strands SEQ ID NO: 85-87, C/U 2′F modified (nucleic acid)
chain 1: CGCGCGCCCAGGAGCGUUGGCCCGCGGCG
chain 2: CGCCGCGGGCCUUCGGGGCCAGCCGCC
chain 3: GGCGGCAGGCCCCCAUAGCCCUGGGCGCGCG
modifications: 2'-fluoro at CU, RNA at AG, backbone not given here; three-strand RNA nanoparticle used as drug carrier
Potential ZP, Experiment result ([1]; sample in ultrapure water): −29.13 mV (±3.13 mV)

B5: R-10: conventional-sequence RNA nanoparticle, strands SEQ ID NO: 82-84, C/U 2′F modified (nucleic acid)
chain 1: CGCGCGCCCACGAGCGUUGCGGGGCGGCG
chain 2: CGCCGCCCCGCUUCGCCGCCAGCCGCC
chain 3: GGCGGCAGGCGGCCAUAGCCGUGGGCGCGCG
modifications: 2'-fluoro at CU, RNA at AG, backbone not given here; three-strand RNA nanoparticle used as drug carrier
Potential ZP, Experiment result ([1]; sample in ultrapure water): −10.87 mV (±0.47 mV)

B6: R-9: conventional-sequence RNA nanoparticle, strands SEQ ID NO: 79-81, C/U 2′F modified (nucleic acid)
chain 1: CGCGCGCCCAGCAGCGUUCGCGGGCGGCG
chain 2: CGCCGCCCGCGUUCGCCGCCAGCCGCC
chain 3: GGCGGCAGGCGGCCAUAGCGCUGGGCGCGCG
modifications: 2'-fluoro at CU, RNA at AG, backbone not given here; three-strand RNA nanoparticle used as drug carrier
Potential ZP, Experiment result ([1]; sample in ultrapure water): −18.20 mV (±1.3 mV)

B7: R-13: conventional-sequence RNA nanoparticle, strands SEQ ID NO: 91-93, C/U 2′F modified (nucleic acid)
chain 1: CGCGCGCCCAGCAGCGUUCGGGGCGCCGC
chain 2: GCGGCGCCCCGUUCGGCCGGCAGGCGGC
chain 3: GCCGCCAGCCGGCCCAUAGCGCUGGGCGCGCG
modifications: 2'-fluoro at CU, RNA at AG, backbone not given here; Strands self-assemble into an RNA nanoparticle carrier
Potential ZP, Experiment result ([1]; sample in ultrapure water): −15.45 mV (±5.81 mV)

B8: R-15: extension fragment deformation+core short-sequence RNA nanoparticle, SEQ ID NO: 120-122, a-strand 3′ biotin, 2′F (nucleic acid)
chain 1: GCGGCGAGCGGCGAGGAGCGUUGGGGCCGGAGGCCGG
chain 2: CCGGCCUCCGGCCCCUUCGGGGCCAGCCGCC
chain 3: GGCGGCAGGCCCCCAUAGCCCUCGCCGCUCGCCGC
modifications: chain 1: 2'-fluoro at CU, RNA at AG, 3' {Biotin}, backbone not given here; chain 2: 2'-fluoro at CU, RNA at AG, backbone not given here; chain 3: 2'-fluoro at CU, RNA at AG, backbone not given here; three-strand RNA nanoparticle
doxorubicin loading rate [2]: 20.5 | Mean particle size (nm) [3]: 6.808 nm | TM value (° C.) [4]: 57.5 °C | Potential ZP, Experiment result ([1]; at 25 DEG C.): −23.23 mV

B9: R-16: extension fragment deformation+core short-sequence RNA nanoparticle, SEQ ID NO: 123-125, 3′ biotin, 2′F (nucleic acid)
chain 1: GCGGCGAGCGGCGAGCAGCGUUCGGGCCGGAGGCCGG
chain 2: CCGGCCUCCGGCCCGUUCGCCGCCAGCCGCC
chain 3: GGCGGCAGGCGGCCAUAGCGCUCGCCGCUCGCCGC
modifications: chain 1: 2'-fluoro at CU, RNA at AG, 3' {Biotin}, backbone not given here; chain 2: 2'-fluoro at CU, RNA at AG, backbone not given here; chain 3: 2'-fluoro at CU, RNA at AG, backbone not given here; three-strand RNA nanoparticle
doxorubicin loading rate [2]: 29.4 | Mean particle size (nm) [3]: 6.978 nm | TM value (° C.) [4]: 53.8 °C | Potential ZP, Experiment result ([1]; at 25 DEG C.): −20.93 mV

B10: D-7: conventional-sequence DNA nanoparticle without target head, strands SEQ ID NO: 117-119 (nucleic acid)
chain 1: dC*dG*dC*dGdCdGdCdCdCdAdCdGdAdGdCdGdTdTdGdCdGdGdGdCdGdC*dC*dG*dC
chain 2: dG*dC*dG*dGdCdGdCdCdCdGdCdTdTdCdGdGdCdGdGdCdAdGdGdC*dG*dG*dC
chain 3: dG*dC*dC*dGdCdCdAdGdCdCdGdCdCdCdAdTdAdGdCdCdGdTdGdGdGdCdGdC*dG*dC*dG
modifications: three-strand DNA nanoparticle
Particle size Z-Ave, Experiment result ([3]; result over 3 detections, DLS): 12.33 d.nm (±1.57 d.nm) | Particle size Z-Ave ([3]; single detection (detection times 1-3), DLS): 10.76 nm·days and 13.9 nm·days and 10.36 nm·days | Potential ZP, Experiment result ([1]; sample in ultrapure water): −32.20 mV (±0.0.5 mV)

B11: D-2: conventional-sequence DNA nanoparticle with EGFRapt target head, strands SEQ ID NO: 102-104 (nucleic acid)
chain 1: dC*dG*dC*dGdCdGdCdCdCdAdGdCdAdGdCdGdTdTdCdGdCdGdGdGdCdGdGdCdGdGdCdCdTdTdAdGdTdAdAdCdGdTdGdCdTdTdTdGdAdTdGdTdCdGdAdTdTdCdGdAdCdAdGdGdA*dG*dG*dC
chain 2: dC*dG*dC*dCdGdCdCdCdGdCdGdTdTdCdGdCdCdGdCdCdAdGdCdC*dG*dC*dC
chain 3: dG*dG*dC*dGdGdCdAdGdGdCdGdGdCdCdAdTdAdGdCdGdCdTdGdGdGdCdGdC*dG*dC*dG
modifications: three-strand DNA nanoparticle with an EGFR aptamer part
Potential ZP, Experiment result ([1]; sample in ultrapure water): −36.47 mV (±0.67 mV)

B12: R-14: conventional-sequence RNA nanoparticle carrying survivin siRNA, strands SEQ ID NO: 94-96, C/U 2′F modified (nucleic acid)
chain 1: CGCGCGCGAGCGUUGCAAUGACAGAUAAGGAACCUGCUTT
chain 2: GGCAGGUUCCUUAUCUGUCAAAGCUUCGGCGGCAGC
chain 3: GCAGCCGCCCAUAGCCGCGCGCG
modifications: chain 1: DNA at T, 2'-fluoro at CU, RNA at AG, backbone not given here; chain 2: 2'-fluoro at CU, RNA at AG, backbone not given here; chain 3: 2'-fluoro at CU, RNA at AG, backbone not given here; three-strand RNA nanoparticle carrying a survivin siRNA fragment
Potential ZP, Experiment result ([1]; sample in ultrapure water): −23.53 mV. ± 2.33 mV
